Measurements published in patent US12099068B2, “Biomarkers for graft-versus-host disease” (Incyte Corporation, priority 2018, dated 2024).

Test system: plasma proteins
Experiment: Plasma proteins modulated between baseline and day 28 in responders (CR, VGPR, PR; n = 19), Example 6 (Table 13)
Type: in vivo, human
Conditions: plasma protein (OLINK NPX); responders (CR, VGPR, PR; n = 19); itacitinib 200 mg or 300 mg QD with corticosteroids; day 28 vs baseline
Outline: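 Plasma at baseline/screening and day 28 profiled for >1000 proteins by OLINK proximity extension assay, reported as NPX (log2). Steroid-naive and steroid-refractory patients pooled. Paired and unpaired t tests, ANOVA and Pearson correlation applied; significance at P<0.05.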

Row | Molecule | Fold Change, Decreased Expression from Baseline to Day 28 | Fold Change, Increased Expression from Baseline to Day 28
1 | MILR1 (protein, UniProt Q7Z6M3 20-343, looked up) Allergin-1: RKAVLDCEAMKTNEFPSPCLDSKTKVVMKGQNVSMFCSHKNKSLQITYSLFRRKTHLGTQDGKGEPAIFNLSITEAHESGPYKCKAQVTSCSKYSRDFSFTIVDPVTSPVLNIMVIQTETDRHITLHCLSVNGSLPINYTFFENHVAISPAISKYDREPAEFNLTKKNPGEEEEYRCEAKNRLPNYATYSHPVTMPSTGGDSCPFCLKLLLPGLLLLLVVIILILAFWVLPKYKTRKAMRNNVPRDRGDTAMEVGIYANILEKQAKEESVPEVGSRPCVSTAQDEAKHSQELQYATPVFQEVAPREQEACDSYKSGYVYSELNF | −1.3829 | 
2 | INPPL1 (protein, UniProt O15357 1-1258, looked up) Phosphatidylinositol …: MASACGAPGPGGALGSQAPSWYHRDLSRAAAEELLARAGRDGSFLVRDSESVAGAFALCVLYQKHVHTYRILPDGEDFLAVQTSQGVPVRRFQTLGELIGLYAQPNQGLVCALLLPVEGEREPDPPDDRDASDGEDEKPPLPPRSGSTSISAPTGPSSPLPAPETPTAPAAESAPNGLSTVSHDYLKGSYGLDLEAVRGGASHLPHLTRTLATSCRRLHSEVDKVLSGLEILSKVFDQQSSPMVTRLLQQQNLPQTGEQELESLVLKLSVLKDFLSGIQKKALKALQDMSSTAPPAPQPSTRKAKTIPVQAFEVKLDVTLGDLTKIGKSQKFTLSVDVEGGRLVLLRRQRDSQEDWTTFTHDRIRQLIKSQRVQNKLGVVFEKEKDRTQRKDFIFVSARKREAFCQLLQLMKNKHSKQDEPDMISVFIGTWNMGSVPPPKNVTSWFTSKGLGKTLDEVTVTIPHDIYVFGTQENSVGDREWLDLLRGGLKELTDLDYRPIAMQSLWNIKVAVLVKPEHENRISHVSTSSVKTGIANTLGNKGAVGVSFMFNGTSFGFVNCHLTSGNEKTARRNQNYLDILRLLSLGDRQLNAFDISLRFTHLFWFGDLNYRLDMDIQEILNYISRKEFEPLLRVDQLNLEREKHKVFLRFSEEEISFPPTYRYERGSRDTYAWHKQKPTGVRTNVPSWCDRILWKSYPETHIICNSYGCTDDIVTSDHSPVFGTFEVGVTSQFISKKGLSKTSDQAYIEFESIEAIVKTASRTKFFIEFYSTCLEEYKKSFENDAQSSDNINFLKVQWSSRQLPTLKPILADIEYLQDQHLLLTVKSMDGYESYGECVVALKSMIGSTAQQFLTFLSHRGEETGNIRGSMKVRVPTERLGTRERLYEWISIDKDEAGAKSKAPSVSRGSQEPRSGSRKPAFTEASCPLSRLFEEPEKPPPTGRPPAPPRAAPREEPLTPRLKPEGAPEPEGVAAPPPKNSFNNPAYYVLEGVPHQLLPPEPPSPARAPVPSATKNKVAITVPAPQLGHHRHPRVGEGSSSDEESGGTLPPPDFPPPPLPDSAIFLPPSLDPLPGPVVRGRGGAEARGPPPPKAHPRPPLPPGPSPASTFLGEVASGDDRSCSVLQMAKTLSEVDYAPAGPARSALLPGPLELQPPRGLPSDYGRPLSFPPPRIRESIQEDLAEEAPCLQGGRASGLGEAGMSAWLRAIGLERYEEGLVHNGWDDLEFLSDITEEDLEEAGVQDPAHKRLLLDTLQLSK | −1.7131 | 
3 | GDF-2 (protein, UniProt Q9UK05 320-429, looked up) Growth/differentiation factor …: SAGAGSHCQKTSLRVNFEDIGWDSWIIAPKEYEAYECKGGCFFPLADDVTPTKHAIVQTLVHLKFPTKVGKACCVPTKLSPISVLYKDDMGVPTLKYHYEGMSVAECGCR |  | 1.3656
4 | ERBB2IP (protein, UniProt Q96RT1 1-1412, looked up) Erbin: MTTKRSLFVRLVPCRCLRGEEETVTTLDYSHCSLEQVPKEIFTFEKTLEELYLDANQIEELPKQLFNCQSLHKLSLPDNDLTTLPASIANLINLRELDVSKNGIQEFPENIKNCKVLTIVEASVNPISKLPDGFSQLLNLTQLYLNDAFLEFLPANFGRLTKLQILELRENQLKMLPKTMNRLTQLERLDLGSNEFTEVPEVLEQLSGLKEFWMDANRLTFIPGFIGSLKQLTYLDVSKNNIEMVEEGISTCENLQDLLLSSNSLQQLPETIGSLKNITTLKIDENQLMYLPDSIGGLISVEELDCSFNEVEALPSSIGQLTNLRTFAADHNYLQQLPPEIGSWKNITVLFLHSNKLETLPEEMGDMQKLKVINLSDNRLKNLPFSFTKLQQLTAMWLSDNQSKPLIPLQKETDSETQKMVLTNYMFPQQPRTEDVMFISDNESFNPSLWEEQRKQRAQVAFECDEDKDEREAPPREGNLKRYPTPYPDELKNMVKTVQTIVHRLKDEETNEDSGRDLKPHEDQQDINKDVGVKTSESTTTVKSKVDEREKYMIGNSVQKISEPEAEISPGSLPVTANMKASENLKHIVNHDDVFEESEELSSDEEMKMAEMRPPLIETSINQPKVVALSNNKKDDTKETDSLSDEVTHNSNQNNSNCSSPSRMSDSVSLNTDSSQDTSLCSPVKQTHIDINSKIRQEDENFNSLLQNGDILNSSTEEKFKAHDKKDFNLPEYDLNVEERLVLIEKSVDSTATADDTHKLDHINMNLNKLITNDTFQPEIMERSKTQDIVLGTSFLSINSKEETEHLENGNKYPNLESVNKVNGHSEETSQSPNRTEPHDSDCSVDLGISKSTEDLSPQKSGPVGSVVKSHSITNMEIGGLKIYDILSDNGPQQPSTTVKITSAVDGKNIVRSKSATLLYDQPLQVFTGSSSSSDLISGTKAIFKFDSNHNPEEPNIIRGPTSGPQSAPQIYGPPQYNIQYSSSAAVKDTLWHSKQNPQIDHASFPPQLLPRSESTENQSYAKHSANMNFSNHNNVRANTAYHLHQRLGPARHGEMWAISPNDRLIPAVTRSTIQRQSSVSSTASVNLGDPGSTRRAQIPEGDYLSYREFHSAGRTPPMMPGSQRPLSARTYSIDGPNASRPQSARPSINEIPERTMSVSDFNYSRTSPSKRPNARVGSEHSLLDPPGKSKVPRDWREQVLRHIEAKKLEKKHPQTSSSGDPCQDGIFISGQQNYSSATLSHKDVPPDSLMKMPLSNGQMGQPLRPQANYSQIHHPPQASVARHPSREQLIDYLMLKVAHQPPYTQPHCSPRQGHELAKQEIRVRVEKDPELGFSISGGVGGRGNPFRPDDDGIFVTRVQPEGPASKLLQPGDKIIQANGYSFINIEHGQAVSLLKTFQNTVELIIVREVSS | −1.7337 | 
5 | TMPRSS15 (protein, UniProt P98073 2-784; P98073 785-1019, looked up) Enteropeptidase non-catalytic …: GSKRGISSRHHSLSSYEIMFAALFAILVVLCAGLIAVSCLTIKESQRGAALGQSHEARATFKITSGVTYNPNLQDKLSVDFKVLAFDLQQMIDEIFLSSNLKNEYKNSRVLQFENGSIIVVFDLFFAQWVSDENVKEELIQGLEANKSSQLVTFHIDLNSVDILDKLTTTSHLATPGNVSIECLPGSSPCTDALTCIKADLFCDGEVNCPDGSDEDNKMCATVCDGRFLLTGSSGSFQATHYPKPSETSVVCQWIIRVNQGLSIKLSFDDFNTYYTDILDIYEGVGSSKILRASIWETNPGTIRIFSNQVTATFLIESDESDYVGFNATYTAFNSSELNNYEKINCNFEDGFCFWVQDLNDDNEWERIQGSTFSPFTGPNFDHTFGNASGFYISTPTGPGGRQERVGLLSLPLDPTLEPACLSFWYHMYGENVHKLSINISNDQNMEKTVFQKEGNYGDNWNYGQVTLNETVKFKVAFNAFKNKILSDIALDDISLTYGICNGSLYPEPTLVPTPPPELPTDCGGPFELWEPNTTFSSTNFPNSYPNLAFCVWILNAQKGKNIQLHFQEFDLENINDVVEIRDGEEADSLLLAVYTGPGPVKDVFSTTNRMTVLLITNDVLARGGFKANFTTGYHLGIPEPCKADHFQCKNGECVPLVNLCDGHLHCEDGSDEADCVRFFNGTTNNNGLVRFRIQSIWHTACAENWTTQISNDVCQLLGLGSGNSSKPIFPTDGGPFVKLNTAPDGHLILTPSQQCLQDSLIRLQCNHKSCGKKLAAQDITPK Enteropeptidase catalytic …: IVGGSNAKEGAWPWVVGLYYGGRLLCGASLVSSDWLVSAAHCVYGRNLEPSKWTAILGLHMKSNLTSPQTVPRLIDEIVINPHYNRRRKDNDIAMMHLEFKVNYTDYIQPICLPEENQVFPPGRNCSIAGWGTVVYQGTTANILQEADVPLLSNERCQQQMPEYNITENMICAGYEEGGIDSCQGDSGGPLMCQENNRWFLAGVTSFGYKCALPNRPGVYARVSRFTEWIQSFLH |  | 3.0633
6 | CD177 (protein, UniProt Q8N6Q3 22-408, looked up) CD177 antigen: LLCQFGTVQHVWKVSDLPRQWTPKNTSCDSGLGCQDTLMLIESGPQVSLVLSKGCTEAKDQEPRVTEHRMGPGLSLISYTFVCRQEDFCNNLVNSLPLWAPQPPADPGSLRCPVCLSMEGCLEGTTEEICPKGTTHCYDGLLRLRGGGIFSNLRVQGCMPQPGCNLLNGTQEIGPVGMTENCNRKDFLTCHRGTTIMTHGNLAQEPTDWTTSNTEMCEVGQVCQETLLLLDVGLTSTLVGTKGCSTVGAQNSQKTTIHSAPPGVLVASYTHFCSSDLCNSASSSSVLLNSLPPQAAPVPGDRQCPTCVQPLGTCSSGSPRMTCPRGATHCYDGYIHLSGGGLSTKMSIQGCVAQPSSFLLNHTRQIGIFSAREKRDVQPPASQHEGG | −1.768 | 
7 | KLRD1 (protein, UniProt Q13241 1-179, looked up) Natural killer cells antigen …: MAVFKTTLWRLISGTLGIICLSLMSTLGILLKNSFTKLSIEPAFTPGPNIELQKDSDCCSCQEKWVGYRCNCYFISSEQKTWNESRHLCASQKSSLLQLQNTDELDFMSSSQQFYWIGLSYSEEHTAWLWENGSALSQYLFPSFETFNTKNCIAYNPNGNALDESCEDKNRYICKQQLI | −1.8117 | 
8 | VEGFD (protein, UniProt O43915 89-205, looked up) Vascular endothelial growth …: FAATFYDIETLKVIDEEWQRTQCSPRETCVEVASELGKSTNTFFKPPCVNVFRCGGCCNEESLICMNTSTSYISKQLFEISVPLTSVPELVPVKVANHTGCKCLPTAPRHPYSIIRR |  | 1.147
9 | FCRL5 (protein, UniProt Q96RD9 16-977, looked up) Fc receptor-like protein 5: QFARTPRPIIFLQPPWTTVFQGERVTLTCKGFRFYSPQKTKWYHRYLGKEILRETPDNILEVQESGEYRCQAQGSPLSSPVHLDFSSASLILQAPLSVFEGDSVVLRCRAKAEVTLNNTIYKNDNVLAFLNKRTDFHIPHACLKDNGAYRCTGYKESCCPVSSNTVKIQVQEPFTRPVLRASSFQPISGNPVTLTCETQLSLERSDVPLRFRFFRDDQTLGLGWSLSPNFQITAMWSKDSGFYWCKAATMPYSVISDSPRSWIQVQIPASHPVLTLSPEKALNFEGTKVTLHCETQEDSLRTLYRFYHEGVPLRHKSVRCERGASISFSLTTENSGNYYCTADNGLGAKPSKAVSLSVTVPVSHPVLNLSSPEDLIFEGAKVTLHCEAQRGSLPILYQFHHEGAALERRSANSAGGVAISFSLTAEHSGNYYCTADNGFGPQRSKAVSLSVTVPVSHPVLTLSSAEALTFEGATVTLHCEVQRGSPQILYQFYHEDMPLWSSSTPSVGRVSFSFSLTEGHSGNYYCTADNGFGPQRSEVVSLFVTVPVSRPILTLRVPRAQAVVGDLLELHCEAPRGSPPILYWFYHEDVTLGSSSAPSGGEASFNLSLTAEHSGNYSCEANNGLVAQHSDTISLSVIVPVSRPILTFRAPRAQAVVGDLLELHCEALRGSSPILYWFYHEDVTLGKISAPSGGGASFNLSLTTEHSGIYSCEADNGLEAQRSEMVTLKVAVPVSRPVLTLRAPGTHAAVGDLLELHCEALRGSPLILYRFFHEDVTLGNRSSPSGGASLNLSLTAEHSGNYSCEADNGLGAQRSETVTLYITGLTANRSGPFATGVAGGLLSIAGLAAGALLLYCWLSRKAGRKPASDPARSPSDSDSQEPTYHNVPAWEELQPVYTNANPRGENVVYSEVRIIQEKKKHAVASDPRHLRNKGSPIIYSEVKVASTPVSGSLFLASSAPHR | −1.3113 | 
